B1: N-terminal head domain of human CCDC61 (hCCDC61^1-143) [human] / itself (parent)
chain: GSMDQPAGLQVDYVFRGVEHAVRVMVSGQVLELEVEDRMTADQWRGEFDAGFIEDLTHKTGNFKQFNIFCHMLESALTQSSESVTLDLLTYTDLESLRNRKMGGRPGSLAPRSAQLNSKRYLILIYSVEFDRIHYPLPLPYQGKP

Variants of: B1
Assay: analytical ultracentrifugation (AUC)
Conditions: with itself

screen value	Variant
16 kDa	GSMDQPAGLQVDYVFRGVEHAVRVMVSGQVLELEVEDRMTADQWRGEFDAGFIEDLTHKTGNFKQFNIFCHMLESALTQSSESVTLDLLTYTDLESLRNRKMGGRPGSLAPRSAQLNSKRYLILIYSVEEARIHYPLPLPYQGKP

Reference: publication PMC7267773, “CCDC61/VFL3 Is a Paralog of SAS6 and Promotes Ciliary Functions” (Structure(London, England:1993), 2020)
